Data as given in patent US11306156.
Values belong to the substance of their own block, whether it stands above or below them.

What was measured:
[1] = biological target: tissue factor (TF) antigen (UniProt P13726); assay: SPR; log ratio against wild-type D3H44 Fab
[2] = biological target: tissue factor (TF) antigen (UniProt P13726); assay: SPR; log ratio against wild-type D3H44 Fab; estimated value
[3] = biological target: tissue factor (TF) antigen (UniProt P13726); assay: SPR (ProteOn XPR36): Fab captured via His tag on anti-penta-His, TF as analyte, 1:1 fit
[4] = biological target: tissue factor (TF) antigen (UniProt P13726); assay: SPR (ProteOn XPR36): Fab captured via His tag on anti-penta-His, TF as analyte, 1:1 fit; estimated value, taken from the same Fab with another L chain tag
[5] = biological target: tissue factor (TF) antigen (UniProt P13726); assay: SPR (ProteOn XPR36), Fab captured by His tag on anti-penta-His surface, TF injected as analyte, 1:1 fit
[6] = biological target: tissue factor (TF) antigen (UniProt P13726); assay: SPR (ProteOn XPR36), Fab captured by His tag on anti-penta-His surface, TF injected as analyte; against wild-type D3H44 Fab
[7] = biological target: tissue factor (TF) antigen (UniProt P13726); assay: SPR (ProteOn XPR36), His-tagged Fab captured on anti-penta His, TF as analyte, 1:1 fit
[8] = biological target: tissue factor (TF) antigen (UniProt P13726); assay: SPR (ProteOn XPR36), His-tagged Fab captured on anti-penta His, TF as analyte; against wild-type D3H44 Fab
[9] = biological target: tissue factor (TF) antigen (UniProt P13726); assay: SPR (ProteOn XPR36), Fab captured on anti-penta-His surface, TF as analyte, 1:1 fit
[10] = biological target: tissue factor (TF) antigen (UniProt P13726); assay: SPR (ProteOn XPR36), Fab captured on anti-penta-His surface, TF as analyte; reference is the wild-type D3H44 Fab
[11] = biological target: tissue factor (TF) antigen (UniProt P13726); assay: SPR, Fab captured on anti-penta-His, TF as analyte, 1:1 fit
[12] = biological target: tissue factor (TF) antigen (UniProt P13726); assay: vs wild-type D3H44 Fab (KD 0.157 nM); SPR, Fab captured on anti-penta-His, TF as analyte

Sequence of tissue factor (TF) antigen (P13726 33-251 limits assumed): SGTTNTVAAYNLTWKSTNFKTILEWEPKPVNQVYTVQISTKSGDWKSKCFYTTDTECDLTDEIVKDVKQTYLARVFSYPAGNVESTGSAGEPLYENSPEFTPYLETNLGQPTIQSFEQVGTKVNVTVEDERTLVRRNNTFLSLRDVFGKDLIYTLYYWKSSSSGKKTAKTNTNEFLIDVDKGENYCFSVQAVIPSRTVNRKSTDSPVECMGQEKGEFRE

Change in KD with respect to wild type (-(log(KD design) - log(KD wt))) [1]: -0.28
Change in KD with respect to wild type (-(log(KD design) - log(KD wt))) [2]: -0.28
Kd [3]: 0.3 nM
Kd [4]: 0.3 nM
Substance: D3H44 Fab heterodimer, H L143E_K145T_Q179E / L T178R (H1L1 of LCCA sets 9683 and 9684)

Kd [5]: 0.28 nM
change in median KD compared to wild type, -(log(KD design)-log(KD wt)) [6]: -0.25 log
Substance: D3H44 H1L1 Fab heterodimer of LCCA Set # 9575 (H1 L143D_K145T_Q179E, L1 T178R)

Kd [7]: 0.26 nM
Change in median values of KD of h1|1 Fab heterodimer compared to wild type (-(log(KD design)-log(KD wt))) [8]: -0.21
Substance: D3H44 Fab heterodimer, H1 L124R_S186R / L1 Q124E_V133G_S176D_T178D_T180E (H1L1 Fab of LCCA Set # 9513)

Change in KD with respect to wild type (-(log(KD design) - log(KD wt))) [2]: 0.39
Kd [4]: 0.06 nM
Substance: D3H44 Fab heterodimer, H L143E_K145T_Q179D / L Q124R_Q160K_T178R (H1L1 of LCCA set 9623)

Kd [9]: 0.17 nM
Change in median values of KD of h1l1 Fab heterodimer compared to wild type (-(log(KD design)-log(KD wt))) [10]: -0.04
Substance: D3H44 Fab heterodimer H1L1 of LCCA sets 9536 and 9526 (H1 L124R_S186R; L1 V133G_S176D_T178D_T180E)

Change in KD with respect to wild type (-(log(KD design) - log(KD wt))) [1]: 0.04
Change in KD with respect to wild type (-(log(KD design) - log(KD wt))) [2]: 0.04
Kd [3]: 0.14 nM
Kd [4]: 0.14 nM
Substance: D3H44 Fab heterodimer, H L143E_K145T_Q179D / L Q124R_T178R (H1L1 of LCCA sets 9635 and 9632)

Kd [7]: 0.17 nM
Change in median values of KD of h1|1 Fab heterodimer compared to wild type (-(log(KD design)-log(KD wt))) [8]: -0.05
Substance: D3H44 Fab heterodimer, H1 D146G_H172R_Q179K / L1 Q38E_Q124E_Q160E_T180E (H1L1 Fab of LCCA Set # 9064)

Kd [5]: 0.16 nM
change in median KD compared to wild type, -(log(KD design)-log(KD wt)) [6]: -0.02 log
Substance: D3H44 H1L1 Fab heterodimer of LCCA Set # 9116 (H1 L124E_A139W, L1 F116A_V133G_L135V_S176R)

Kd [9]: 0.24 nM
Change in median values of KD of h1l1 Fab heterodimer compared to wild type (-(log(KD design)-log(KD wt))) [10]: -0.19
Substance: D3H44 Fab heterodimer H1L1 of LCCA sets 9257 and 9259 (H1 L124E_L143E_K145M; L1 Q124K_V133G_S176R_T178K)

Kd [7]: 0.28 nM
Change in median values of KD of h1|1 Fab heterodimer compared to wild type (-(log(KD design)-log(KD wt))) [8]: -0.26
Substance: D3H44 Fab heterodimer, H1 L124E_L143E_K145M / L1 Q124K_V133G_Q160K_S176R (H1L1 Fab of LCCA Set # 9248 and 9249)

Change in KD with respect to wild type (-(log(KD design) - log(KD wt))) [1]: 0.05
Change in KD with respect to wild type (-(log(KD design) - log(KD wt))) [2]: 0.05
Kd [3]: 0.14 nM
Kd [4]: 0.14 nM
Substance: D3H44 Fab heterodimer, H L143E_K145T_Q179E / L Q124K_T178R (H1L1 of LCCA sets 9645 and 9648)

Kd [9]: 0.2 nM
Change in median values of KD of h1l1 Fab heterodimer compared to wild type (-(log(KD design)-log(KD wt))) [10]: -0.1
Substance: D3H44 Fab heterodimer H1L1 of LCCA sets 9523 and 9524 (H1 L124R_S186R; L1 V133G_S176D_T178D)

Kd [5]: 0.23 nM
change in median KD compared to wild type, -(log(KD design)-log(KD wt)) [6]: -0.17 log
Substance: D3H44 H1L1 Fab heterodimer of LCCA Sets # 9486, 9487, 9488 and 9489 (H1 L124R_S186K, L1 V133G_S176D_T178E_T180E)

Kd [9]: 0.16 nM
Change in median values of KD of h1l1 Fab heterodimer compared to wild type (-(log(KD design)-log(KD wt))) [10]: -0.02
Substance: D3H44 Fab heterodimer H1L1 of LCCA set 9226 (H1 L124E_L143D_K145T; L1 Q124K_V133G_S176R_T178R)

Kd [5]: 0.16 nM
change in median KD compared to wild type, -(log(KD design)-log(KD wt)) [6]: -0.02 log
Substance: D3H44 H1L1 Fab heterodimer of LCCA Sets # 9092, 9091 and 9090 (H1 L124A_L143F_Q179K, L1 Q124E_V133W_S176T_T178E_T180E)

Kd [5]: 0.24 nM
change in median KD compared to wild type, -(log(KD design)-log(KD wt)) [6]: -0.18 log
Substance: D3H44 H1L1 Fab heterodimer of LCCA Sets # 6054, 9338 and 9339 (H1 L124R, L1 V133G_S176D_T178D)

Kd [7]: 0.27 nM
Change in median values of KD of h1|1 Fab heterodimer compared to wild type (-(log(KD design)-log(KD wt))) [8]: -0.24
Substance: D3H44 Fab heterodimer, H1 L124E_L143D_K145M / L1 Q124K_V133G_Q160K_S176R (H1L1 Fab of LCCA Set # 9170, 9171 and 9172)

Kd [7]: 0.17 nM
Change in median values of KD of h1|1 Fab heterodimer compared to wild type (-(log(KD design)-log(KD wt))) [8]: -0.03
Substance: D3H44 Fab heterodimer, H1 H172R_S186R / L1 Q38E_Q124E_Q160E_T180E (H1L1 Fab of LCCA Set # 9075)

Kd [9]: 0.16 nM
Change in median values of KD of h1l1 Fab heterodimer compared to wild type (-(log(KD design)-log(KD wt))) [10]: -0.01
Substance: D3H44 Fab heterodimer H1L1 of LCCA set 9361 (H1 L124R_D146N_Q179K; L1 V133G_S176D_T178E_T180E)

Kd [5]: 0.28 nM
change in median KD compared to wild type, -(log(KD design)-log(KD wt)) [6]: -0.25 log
Substance: D3H44 H1L1 Fab heterodimer of LCCA Sets # 9743 and 9744 (H1 L143R, L1 Q124E_V133E_S176L)

Change in KD with respect to wild type (-(log(KD design) - log(KD wt))) [2]: -0.08
Kd [4]: 0.19 nM
Substance: D3H44 Fab heterodimer, H L143E_K145T_Q179E / L Q124R_T178K (H1L1 of LCCA set 9657)

Kd [5]: 0.15 nM
change in median KD compared to wild type, -(log(KD design)-log(KD wt)) [6]: 0.02 log
Substance: D3H44 H1L1 Fab heterodimer of LCCA Set # 9103 (H1 L124A_S186K, L1 Q124E_V133W_T180E)

Change in KD with respect to wild type (-(log(KD design) - log(KD wt))) [2]: 0.17
Kd [4]: 0.11 nM
Substance: D3H44 Fab heterodimer, H L143E_K145T_Q179D / L T178R (H1L1 of LCCA set 9641)

Kd [5]: 0.13 nM
change in median KD compared to wild type, -(log(KD design)-log(KD wt)) [6]: 0.1 log
Substance: D3H44 H1L1 Fab heterodimer of LCCA Set # 9122 (H1 L124E_H172T, L1 V133G_S174R_S176R)

Kd [11]: 0.24 nM
change in median KD compared to wild type, -(log(KD design)-log(KD wt)) [12]: -0.18
Substance: H1L1 Fab heterodimer of LCCA sets 9546 and 9547 (D3H44 Fab, H1 L124R_S186R, L1 V133G_S176D_T180E)

Kd [7]: 0.26 nM
Change in median values of KD of h1|1 Fab heterodimer compared to wild type (-(log(KD design)-log(KD wt))) [8]: -0.22
Substance: D3H44 Fab heterodimer, H1 L143K_D146G / L1 Q124E_V133D (H1L1 Fab of LCCA Set # 9734)

Kd [7]: 0.18 nM
Change in median values of KD of h1|1 Fab heterodimer compared to wild type (-(log(KD design)-log(KD wt))) [8]: -0.05
Substance: D3H44 Fab heterodimer, H1 D146G_Q179K / L1 Q38E_Q124E_Q160E_T180E (H1L1 Fab of LCCA Set # 9065)

Kd [11]: 0.2 nM
change in median KD compared to wild type, -(log(KD design)-log(KD wt)) [12]: -0.09
Substance: H1L1 Fab heterodimer of LCCA sets 9735 and 9737 (D3H44 Fab, H1 L143R, L1 Q124E_V133E)

Kd [11]: 0.29 nM
change in median KD compared to wild type, -(log(KD design)-log(KD wt)) [12]: -0.27
Substance: H1L1 Fab heterodimer of LCCA sets 9757 and 9758 (D3H44 Fab, H1 Q179K, L1 Q124E_Q160E_T178E)

Change in KD with respect to wild type (-(log(KD design) - log(KD wt))) [1]: -0.25
Change in KD with respect to wild type (-(log(KD design) - log(KD wt))) [2]: -0.25
Kd [3]: 0.28 nM
Kd [4]: 0.28 nM
Substance: D3H44 Fab heterodimer, H L143D_K145T_Q179E / L T178R (H1L1 of LCCA sets 9579 and 9575)

Change in KD with respect to wild type (-(log(KD design) - log(KD wt))) [1]: -0.23
Change in KD with respect to wild type (-(log(KD design) - log(KD wt))) [2]: -0.23
Kd [3]: 0.27 nM
Kd [4]: 0.27 nM
Substance: D3H44 Fab heterodimer, H L143E_K145T_Q179E / L Q124R_T178R (H1L1 of LCCA sets 9679 and 9663)
